Laboratory results as given in PMC10338859.
pKd: −log10 of the molar value.

Key:
[1] = tested on: GR20, poly(GR) dipeptide repeat peptide; assay: BLI; conditions: apparent Kd, 1:1 equilibrium fit; BLI: 10 mM Tris-HCl, 1 mM disodium EDTA, pH 8.0, 150 mM NaCl, 0.1 mg/ml BSA, 0.01% Tween-20, 25 C; RNA on streptavidin …
[2] = tested on: PR20, poly(PR) dipeptide repeat peptide; assay: BLI; conditions: apparent Kd, 1:1 equilibrium fit; BLI: 10 mM Tris-HCl, 1 mM disodium EDTA, pH 8.0, 150 mM NaCl, 0.1 mg/ml BSA, 0.01% Tween-20, 25 C; RNA on streptavidin …

For “AUAAUAUAAUAUAAUAUAAUAUAAU [poly(AUAAU) RNA]”, the pKd [1] was 8.21 and the pKd [2] was 7.95.
Work on “GAGAAGAGAAGAGAAGAGAAGAGAA [poly(GAAGA) RNA]” yielded a pKd [1] of 8.44 and a pKd [2] of 8.59.
